Assays:
[1] = biological target: reference Nanobody (in accordance with WO 04/062551); assay: competition ELISA: soluble ristocetin-preincubated wt-VWF at equal molar concentration against 62.5 nM biotinylated reference Nanobody on immobilized VWF
[2] = biological target: VWF in human whole blood of healthy volunteers (human) (UniProt P04275); assay: cell-based or functional assay

Row | Substance | percent reduction of binding [1] [%] | platelet coverage [2] [%]
1 | wt-VWF preincubated with 1 mg/ml ristocetin (ristocetin-activated VWF) (from UniProt P04275 764-2813) | 90 | –
2 | GpIbα on platelets (from UniProt P07359 17-652) (receptor) | – | 67.8

— patent US20080096223A1
